According to patent US20090258375A1:
Where two headings read alike, the source gives them in different places. One block for each molecule: values may come before it.

Legend:
[1] = target: control insect cell lysate (sf9 cells infected with empty Baculovirus); test: immuno-trap protease assay, control lysate
[2] = target: recombinant bovine PAG-12 (fusion protein with the FLAG peptide) (bovine); test: immuno-trap protease assay on crude insect cell lysate
[3] = target: recombinant bovine PAG-2 (fusion protein with the FLAG peptide) (bovine) (UniProt Q28057); test: as above
[4] = target: recombinant porcine PAG-2 (FLAG-tagged) (porcine) (UniProt Q29079); test: as above
[5] = target: control insect cell lysate (sf9 cells infected with empty Baculovirus); test: immuno-trap protease assay, control lysate (second row)
[6] = target: recombinant bovine PAG-12 (fusion protein with the FLAG peptide) (bovine); test: immuno-trap protease assay on crude insect cell lysate (second row)
[7] = target: recombinant bovine PAG-2 (fusion protein with the FLAG peptide) (bovine) (UniProt Q28057); test: as above
[8] = target: recombinant porcine PAG-2 (FLAG-tagged) (porcine) (UniProt Q29079); test: as above
[9] = target: recombinant porcine PAG-2 (FLAG-tagged) (porcine) (UniProt Q29079); test: immuno-trap protease assay, anti-FLAG with poPAG-2 lysate as positive control
[10] = target: recombinant equine-TSH-beta (equine) (UniProt Q28376); test: immuno-trap protease assay, anti-FLAG with TSH-beta; TSH-beta has no proteolytic activity, so the reading is background and does not tell whether it was trapped
[11] = target: bovine serum albumin (bovine) (UniProt P02769); test: immuno-trap protease assay, 1 ug rabbit immunoglobulins coated, background control, 50 ng blank column
[12] = test system: T1, fluorescent cathepsin D/E substrate MOCac-Gly-Lys-Pro-Ile-Leu-Phe-Phe-Arg-Leu-Lys(Dnp)-D-Arg-NH2
T1 sequence: GKPILFFRLK

[13] = target: T1, fluorescent cathepsin D/E substrate MOCac-Gly-Lys-Pro-Ile-Leu-Phe-Phe-Arg-Leu-Lys(Dnp)-D-Arg-NH2; test: cell-based or functional assay
[14] = target: T2, fluorescent cathepsin D/E substrate MOCac-Gly-Lys-Pro-Ile-Leu-Phe-Phe-Arg-Leu-Lys(Dnp)-D-Arg-NH2
T2 chain: GKPILFFRLK

Sequence of UniProt P02769 (P02769 25-607 limits assumed): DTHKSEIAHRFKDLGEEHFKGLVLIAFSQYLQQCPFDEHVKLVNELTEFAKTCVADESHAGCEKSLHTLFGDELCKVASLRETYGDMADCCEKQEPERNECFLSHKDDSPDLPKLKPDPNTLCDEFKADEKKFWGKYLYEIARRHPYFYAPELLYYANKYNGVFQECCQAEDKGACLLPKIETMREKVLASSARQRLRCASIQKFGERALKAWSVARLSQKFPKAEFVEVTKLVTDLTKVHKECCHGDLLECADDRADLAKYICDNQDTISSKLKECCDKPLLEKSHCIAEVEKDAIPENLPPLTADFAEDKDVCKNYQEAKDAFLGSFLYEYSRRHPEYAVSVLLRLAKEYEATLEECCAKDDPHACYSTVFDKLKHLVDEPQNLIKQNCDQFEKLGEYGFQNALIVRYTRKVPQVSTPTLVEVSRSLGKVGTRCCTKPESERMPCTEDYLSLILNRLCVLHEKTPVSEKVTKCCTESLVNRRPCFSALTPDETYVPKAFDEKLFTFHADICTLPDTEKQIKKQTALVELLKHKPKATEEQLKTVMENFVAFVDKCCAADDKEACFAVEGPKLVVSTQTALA

relative fluorescence of released product (relative fluorescence) [1]: 4120
relative fluorescence of released product (relative fluorescence) [2]: 42300
relative fluorescence of released product (relative fluorescence) [3]: 27000
relative fluorescence of released product (relative fluorescence) [4]: 96800
relative fluorescence of released product (relative fluorescence) [5]: 7760
relative fluorescence of released product (relative fluorescence) [6]: 23000
relative fluorescence of released product (relative fluorescence) [7]: 26500
relative fluorescence of released product (relative fluorescence) [8]: 92300
relative fluorescent product release (relative fluorescence) [9]: 97400
relative fluorescent product release (relative fluorescence) [10]: 47000
Molecule: anti-FLAG monoclonal antibody (M2; Sigma)

relative fluorescence (counts) of released product [11]: 6040 counts
Molecule: rabbit immunoglobulins (background control) (antibody)

Molecule: recombinant boPAG-6 (FLAG epitope tag fusion)
proteolytic activity [12]: recombinant boPAG-6, -8, -9 and -10 have proteolytic activity with acidic pH optima
relative fluorescent product release, anti-FLAG immuno-trap protease assay, pH 3.0 (relative fluorescence) [12]: 84000
relative fluorescent product release, anti-FLAG immuno-trap protease assay, pH 4.0 (relative fluorescence) [12]: 77900
relative fluorescent product release, anti-FLAG immuno-trap protease assay, pH 5.0 (relative fluorescence) [12]: 66300
relative fluorescent product release, anti-FLAG immuno-trap protease assay, pH 6.0 (relative fluorescence) [12]: 31300
relative fluorescent product release, anti-FLAG immuno-trap protease assay, pH 7.0 (relative fluorescence) [12]: 24300

Molecule: recombinant boPAG-8 (FLAG epitope tag fusion)
proteolytic activity [12]: recombinant boPAG-6, -8, -9 and -10 have proteolytic activity with acidic pH optima
relative fluorescent product release, anti-FLAG immuno-trap protease assay, pH 3.0 (relative fluorescence) [12]: 80600
relative fluorescent product release, anti-FLAG immuno-trap protease assay, pH 4.0 (relative fluorescence) [12]: 63600
relative fluorescent product release, anti-FLAG immuno-trap protease assay, pH 5.0 (relative fluorescence) [12]: 56100
relative fluorescent product release, anti-FLAG immuno-trap protease assay, pH 6.0 (relative fluorescence) [12]: 31900
relative fluorescent product release, anti-FLAG immuno-trap protease assay, pH 7.0 (relative fluorescence) [12]: 26400

Molecule: recombinant boPAG-9 (FLAG epitope tag fusion)
proteolytic activity [12]: recombinant boPAG-6, -8, -9 and -10 have proteolytic activity with acidic pH optima
relative fluorescent product release, anti-FLAG immuno-trap protease assay, pH 3.0 (relative fluorescence) [12]: 72100
relative fluorescent product release, anti-FLAG immuno-trap protease assay, pH 4.0 (relative fluorescence) [12]: 55000
relative fluorescent product release, anti-FLAG immuno-trap protease assay, pH 5.0 (relative fluorescence) [12]: 48100
relative fluorescent product release, anti-FLAG immuno-trap protease assay, pH 6.0 (relative fluorescence) [12]: 27800
relative fluorescent product release, anti-FLAG immuno-trap protease assay, pH 7.0 (relative fluorescence) [12]: 24400

Molecule: recombinant boPAG-10 (FLAG epitope tag fusion)
proteolytic activity [12]: recombinant boPAG-6, -8, -9 and -10 have proteolytic activity with acidic pH optima
relative fluorescent product release, anti-FLAG immuno-trap protease assay, pH 3.0 (relative fluorescence) [12]: 52100
relative fluorescent product release, anti-FLAG immuno-trap protease assay, pH 4.0 (relative fluorescence) [12]: 42700
relative fluorescent product release, anti-FLAG immuno-trap protease assay, pH 5.0 (relative fluorescence) [12]: 38800
relative fluorescent product release, anti-FLAG immuno-trap protease assay, pH 6.0 (relative fluorescence) [12]: 26500
relative fluorescent product release, anti-FLAG immuno-trap protease assay, pH 7.0 (relative fluorescence) [12]: 23600

relative fluorescent product release, anti-FLAG immuno-trap protease assay, pH 3.0 (relative fluorescence) [13]: 34600
relative fluorescent product release, anti-FLAG immuno-trap protease assay, pH 4.0 (relative fluorescence) [13]: 28600
relative fluorescent product release, anti-FLAG immuno-trap protease assay, pH 5.0 (relative fluorescence) [13]: 28500
relative fluorescent product release, anti-FLAG immuno-trap protease assay, pH 6.0 (relative fluorescence) [13]: 23300
relative fluorescent product release, anti-FLAG immuno-trap protease assay, pH 7.0 (relative fluorescence) [13]: 23700
Molecule: recombinant boPAG-17 (FLAG epitope tag fusion)

relative fluorescent product release, anti-FLAG immuno-trap protease assay, pH 3.0 (relative fluorescence) [13]: 40300
relative fluorescent product release, anti-FLAG immuno-trap protease assay, pH 4.0 (relative fluorescence) [13]: 32500
relative fluorescent product release, anti-FLAG immuno-trap protease assay, pH 5.0 (relative fluorescence) [13]: 32100
relative fluorescent product release, anti-FLAG immuno-trap protease assay, pH 6.0 (relative fluorescence) [13]: 24300
relative fluorescent product release, anti-FLAG immuno-trap protease assay, pH 7.0 (relative fluorescence) [13]: 23300
Molecule: recombinant boPAG-19 (FLAG epitope tag fusion)

relative fluorescent product release, anti-FLAG immuno-trap protease assay, pH 3.0 (relative fluorescence) [13]: 38600
relative fluorescent product release, anti-FLAG immuno-trap protease assay, pH 4.0 (relative fluorescence) [13]: 31300
relative fluorescent product release, anti-FLAG immuno-trap protease assay, pH 5.0 (relative fluorescence) [13]: 31400
relative fluorescent product release, anti-FLAG immuno-trap protease assay, pH 6.0 (relative fluorescence) [13]: 24500
relative fluorescent product release, anti-FLAG immuno-trap protease assay, pH 7.0 (relative fluorescence) [13]: 23800
Molecule: recombinant boPAG-20 (FLAG epitope tag fusion)

Molecule: recombinant bovine PAG-12 (fusion protein with the FLAG peptide)
proteolytic activity (% relative activity) [12]: maximal activity for boPAG-12 and poPAG-2 was at pH 3.5

relative fluorescent product release, anti-FLAG immuno-trap protease assay, pH 3.0 (negative control) (relative fluorescence) [13]: 38300
relative fluorescent product release, anti-FLAG immuno-trap protease assay, pH 4.0 (negative control) (relative fluorescence) [13]: 33900
relative fluorescent product release, anti-FLAG immuno-trap protease assay, pH 5.0 (negative control) (relative fluorescence) [13]: 35000
relative fluorescent product release, anti-FLAG immuno-trap protease assay, pH 6.0 (negative control) (relative fluorescence) [13]: 28200
relative fluorescent product release, anti-FLAG immuno-trap protease assay, pH 7.0 (negative control) (relative fluorescence) [13]: 26600
Molecule: recombinant equine-TSH-beta (from UniProt Q28376 21-138)

B1: recombinant porcine PAG-2 (FLAG-tagged) (protein)
chain: DYKDDDDKLVMIPLTKVKSVRESLREKGLLKNFLKEHPYNMIQNLLSKNSSHVQKFSYQPLRNYLDMVYVGNISIGTPPQQFSVVFDTGSSDLWVPSIYCKSKACVTHRSFNPSHSSTFHDRGKSIKLEYGSGKMSGFLGQDTVRIGQLTSTGQAFGLSKEETGKAFEHAIFDGILGLAYPSIAIKGTTTVIDNLKKQDQISEPVFAFYLSSDKEEGSVVMFGGVDKKYYKGDLKWVPLTQTSYWQIALDRITCRGRVIGCPRGCQAIVDTGTSMLHGPSKAVAKIHSLIKHFEKEYVVPCNARKALPDIVFTINNVDYPVPAQAYIRKYVVPCNARKALPDIVFTINNVDYPVPAQAYIRKNANNNRCYSTFEDIMDTLNQREIWILGDVFLRLYFTVYDEGQNRIGLAQAT
proteolytic activity (% relative activity) [14]: maximal activity for boPAG-12 and poPAG-2 was at pH 3.5

B2: recombinant bovine PAG-2 (fusion protein with the FLAG peptide) (protein)
chain: DYKDDDDKIVILPLKKMKTLRETLREKNLLNNFLEEQAYRLSKNDSKITIHPLRNYLDTAYVGNITIGTPPQEFRVVFDTGSANLWVPCITCTSPACYTHKTFNPQNSSSFREVGSPITIFYGSGIIQGFLGSDTVRIGNLVSPEQSFGLSLEEYGFDSLPFDGILGLAFPAMGIEDTIPIFDNLWSHGAFSEPVFAFYLNTNKPEGSVVMFGGVDHRYYKGELNWIPVSQTSHWQISMNNISMNGTVTACSCGCEALLDTGTSMIYGPTKLVTNIHKLMNARLENSEYVVSCDAVKTLPPVIFNINGIDYPLRPQAYIIKIQNSCRSVFQGGTENSSLNTWILGDIFLRQYFSVFDRKNRRIGLAPAV
proteolytic activity (% relative activity) [14]: Maximal activity for boPAG-2 was at pH 4
